The values that follow come from patent US20190062438A1 (CSL, published 2019).

Test [1] has as its target T1, soluble Homo sapiens CD131 comprising a C-terminal 6xHis tag (human, UniProt P32927 17-438).
T1 construct: truncated after Ser438, C-terminal 6xHis; also called shCD131; shβc
T1 sequence: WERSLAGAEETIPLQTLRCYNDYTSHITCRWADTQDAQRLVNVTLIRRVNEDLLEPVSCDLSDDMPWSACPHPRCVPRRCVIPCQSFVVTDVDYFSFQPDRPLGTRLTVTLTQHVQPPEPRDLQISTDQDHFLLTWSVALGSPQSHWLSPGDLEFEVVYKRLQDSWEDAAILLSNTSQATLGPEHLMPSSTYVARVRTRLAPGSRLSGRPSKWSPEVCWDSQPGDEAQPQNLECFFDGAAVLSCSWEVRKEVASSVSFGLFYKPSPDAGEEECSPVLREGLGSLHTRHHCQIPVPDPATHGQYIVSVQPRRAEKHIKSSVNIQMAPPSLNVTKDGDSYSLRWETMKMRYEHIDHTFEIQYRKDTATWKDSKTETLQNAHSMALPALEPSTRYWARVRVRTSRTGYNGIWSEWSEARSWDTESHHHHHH
In words: SPR, Fab over captured shCD131. Background: SPR reads the build-up and loss of mass on a sensor chip optically.

In test [2] the target is T1, soluble Homo sapiens CD131 comprising a …. Nature of the test: SPR, kinetics, Fab over captured shCD131.
Test [3] deals with T2, human CD131 (human, UniProt P32927 17-897).
T2 construct: on transfected FS293F cells, TF-1 cells, human neutrophils and eosinophils, there together with the cytokine-specific alpha chains; also called hCD131; βc
T2 sequence: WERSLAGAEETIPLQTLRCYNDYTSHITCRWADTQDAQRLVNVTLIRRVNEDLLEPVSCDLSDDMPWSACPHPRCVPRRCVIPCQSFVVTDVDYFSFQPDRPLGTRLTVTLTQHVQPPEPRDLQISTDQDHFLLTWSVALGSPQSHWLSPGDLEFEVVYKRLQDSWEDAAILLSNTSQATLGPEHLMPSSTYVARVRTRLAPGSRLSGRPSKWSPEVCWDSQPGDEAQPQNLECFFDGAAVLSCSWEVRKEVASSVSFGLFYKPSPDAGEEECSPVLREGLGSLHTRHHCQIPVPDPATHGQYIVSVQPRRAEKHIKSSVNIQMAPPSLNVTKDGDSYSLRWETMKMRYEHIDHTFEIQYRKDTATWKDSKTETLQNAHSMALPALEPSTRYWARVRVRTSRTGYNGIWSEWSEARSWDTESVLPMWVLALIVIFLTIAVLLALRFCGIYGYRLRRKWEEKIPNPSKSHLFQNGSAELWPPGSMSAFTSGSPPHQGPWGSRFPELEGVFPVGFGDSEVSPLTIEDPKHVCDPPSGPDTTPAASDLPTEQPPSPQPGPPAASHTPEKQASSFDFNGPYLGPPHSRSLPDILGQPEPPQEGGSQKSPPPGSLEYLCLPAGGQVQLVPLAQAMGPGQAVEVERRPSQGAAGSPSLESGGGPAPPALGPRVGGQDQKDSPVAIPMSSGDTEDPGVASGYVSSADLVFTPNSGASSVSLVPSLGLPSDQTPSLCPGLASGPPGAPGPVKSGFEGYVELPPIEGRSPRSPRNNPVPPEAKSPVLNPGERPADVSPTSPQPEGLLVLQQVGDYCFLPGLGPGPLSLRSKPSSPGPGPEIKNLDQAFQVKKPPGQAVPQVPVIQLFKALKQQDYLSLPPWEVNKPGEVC
Nature of the test: saturation binding of radio-iodinated Fab to cells; row 'Average for all cells (±SEM)' (neutrophils, TF1 cells).

Test [4] addresses T2, human CD131. In words: saturation binding of radio-iodinated Fab to TF1 cells (first of three values in the cell). Here is the method:
(§1) Cytokines and antibodies were radio-iodinated using Pierce Pre-Coated Iodination tubes (Thermo Scientific) according to the manufacturer's instructions. MAb binding to cells expressing hβc was determined by incubating 1-2×10⁶ cells with radio-iodinated mAb at a range of concentrations at 23° C. for 1-2 hours with gentle mixing. Cell suspensions were then centrifuged through fetal calf serum (FCS) and radioactivity associated with the cells pellets was assessed by counting in a Wizard² 2470 Automatic Gamma Counter (Perkin Elmer, Rowville, VIC, Australia). Non-specific binding was assessed for each radio-iodinated mAb in the presence of at least a 500-fold excess of unlabeled mAb. […] Competition binding assays were performed essentially as previously described (41). Briefly 1-2×10⁶ cells were incubated with mAb or cytokine competitor at a range of concentrations at 4° C. for 45 minutes with gentle mixing. Radio-iodinated cytokine or mAb was then added and the mixture incubated at 23° C. for a further 1-2 hours with gentle mixing. Cell suspensions were then centrifuged through FCS and radioactivity associated with the cells pellets assessed by counting.

The target in test [5] is T2, human CD131. In words: saturation binding of radio-iodinated Fab to TF1 cells (third of three values in the cell). How it is done: as §1
For test [6], the target named is T2, human CD131. Nature of the test: saturation binding of radio-iodinated Fab to TF1 cells (second of three values in the cell). Here is the method: as §1
Test [7] has as its target T2, human CD131. In words: saturation binding of radio-iodinated Fab on human neutrophils. How it is done:
(§2) Each point is the mean of duplicate determinations of cell-bound radio-iodinated antibody after subtraction of non-specific binding. Data from a single neutrophil binding experiment and a representative eosinophil binding experiment, n=2 is shown.
as §1, with “Radio-iodinated cytokine or mAb was then added and the mixture incubated at 23° C. for a further 1-2 hours with gentle mixing.” left out

Test [8] deals with T2, human CD131. In words: saturation binding of radio-iodinated antibody to cells; row 'Average for all cells (±SEM)' (neutrophils, eosinophils, TF1 cells).
The target in test [9] is T2, human CD131. Nature of the test: saturation binding of radio-iodinated antibody to TF1 cells (first of three values in the cell). How it is done:
as §1

For test [10], the target named is T2, human CD131. In words: saturation binding of radio-iodinated antibody to TF1 cells (second of three values in the cell). How it is done: as §1
Test [11] has as its target T2, human CD131. In words: saturation binding of radio-iodinated antibody to human eosinophils (second of two values in the cell). How it is done: as §2
as §1, with “Radio-iodinated cytokine or mAb was then added and the mixture incubated at 23° C. for a further 1-2 hours with gentle mixing.” left out

The target of test [12] is T2, human CD131. In words: cell-based or functional assay.
Test [13] concerns the target T2, human CD131. In words: competition binding on purified human eosinophils: cells pre-incubated with the antibody, then equilibrated with 340 pM radio-iodinated IL-3; cell-bound c.p.m. Here is the method:
(§3) Each point is the mean of duplicate determinations of cell-bound radioiodinated cytokine and error bars represent the standard deviation.
as §1

Test [14] has as its target T2, human CD131. Nature of the test: saturation binding of radio-iodinated antibody to human eosinophils (first of two values in the cell). Here is the method:
as §2
as §1, with “Radio-iodinated cytokine or mAb was then added and the mixture incubated at 23° C. for a further 1-2 hours with gentle mixing.” left out

Test [15] concerns the target T2, human CD131. Nature of the test: saturation binding of radio-iodinated IgG on human neutrophils. How it is done:
as §2
as §1, with “Radio-iodinated cytokine or mAb was then added and the mixture incubated at 23° C. for a further 1-2 hours with gentle mixing.” left out

Test [16] has as its target T2, human CD131. In words: saturation binding of radio-iodinated antibody to TF1 cells (third of three values in the cell). How it is done:
as §1

Test [17] has as its target T2, human CD131. In words: cell-based or functional assay. The source holds these as a separate data set.
In test [18] the target is T2, human CD131. Nature of the test: competition binding on purified human eosinophils: cells pre-incubated with the antibody, then equilibrated with 200 pM radio-iodinated IL-5; cell-bound c.p.m. How it is done: as §3, §1
The target in test [19] is T2, human CD131. Nature of the test: saturation binding of radio-iodinated IgG on human eosinophils. Here is the method:
as §2
as §1, with “Radio-iodinated cytokine or mAb was then added and the mixture incubated at 23° C. for a further 1-2 hours with gentle mixing.” left out

Test [20] concerns the target T2, human CD131. In words: cell-based or functional assay. The source holds these as a separate data set.
A further test deals with T3, human GM-CSFR α-chain (human, UniProt P15509 23-400).
T3 construct: whole, on cells; also called GMRα
T3 sequence (looked up): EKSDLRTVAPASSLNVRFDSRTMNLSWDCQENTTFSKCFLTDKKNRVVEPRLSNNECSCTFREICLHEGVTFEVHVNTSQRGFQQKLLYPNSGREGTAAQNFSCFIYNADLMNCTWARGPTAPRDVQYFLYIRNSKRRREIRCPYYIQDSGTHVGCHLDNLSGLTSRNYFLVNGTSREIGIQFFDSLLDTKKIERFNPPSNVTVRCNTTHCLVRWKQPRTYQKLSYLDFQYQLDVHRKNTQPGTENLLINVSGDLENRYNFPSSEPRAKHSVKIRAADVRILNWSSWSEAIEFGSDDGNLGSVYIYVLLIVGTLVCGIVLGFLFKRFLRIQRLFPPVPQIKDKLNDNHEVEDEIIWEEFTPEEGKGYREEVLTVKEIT
Nature of the test: flow cytometry, transiently transfected cells. (In general: Flow cytometry measures light scatter and fluorescence of single cells or particles in a stream.)

The target in the next test is T4, human IL-3R α-chain (human, UniProt P26951 19-378).
T4 construct: also called Hu-IL3R α chain
Nature of the test: flow cytometry, transiently transfected cells.

The target of a further test is T5, human IL-5R α-chain (human, UniProt Q01344 21-420).
T5 construct: also called Hu-IL5R α chain isoform 1
T5 sequence: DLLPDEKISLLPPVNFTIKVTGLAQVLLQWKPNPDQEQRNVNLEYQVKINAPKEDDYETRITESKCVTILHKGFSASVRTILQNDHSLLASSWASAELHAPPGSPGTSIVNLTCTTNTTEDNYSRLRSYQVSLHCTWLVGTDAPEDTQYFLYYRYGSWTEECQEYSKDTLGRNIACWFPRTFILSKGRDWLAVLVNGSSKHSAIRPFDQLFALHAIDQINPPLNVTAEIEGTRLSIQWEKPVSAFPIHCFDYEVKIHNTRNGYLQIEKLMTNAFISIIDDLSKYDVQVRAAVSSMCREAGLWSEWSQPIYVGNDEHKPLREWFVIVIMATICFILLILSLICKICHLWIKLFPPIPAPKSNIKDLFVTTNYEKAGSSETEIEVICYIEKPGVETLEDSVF
Nature of the test: flow cytometry, transiently transfected cells.

Numbering of substitutions follows the chain as printed. Names and notes keep the numbering of the source. Read-outs that look alike come from different tables or passages of the source.

T4 sequence (P26951 19-378 limits assumed): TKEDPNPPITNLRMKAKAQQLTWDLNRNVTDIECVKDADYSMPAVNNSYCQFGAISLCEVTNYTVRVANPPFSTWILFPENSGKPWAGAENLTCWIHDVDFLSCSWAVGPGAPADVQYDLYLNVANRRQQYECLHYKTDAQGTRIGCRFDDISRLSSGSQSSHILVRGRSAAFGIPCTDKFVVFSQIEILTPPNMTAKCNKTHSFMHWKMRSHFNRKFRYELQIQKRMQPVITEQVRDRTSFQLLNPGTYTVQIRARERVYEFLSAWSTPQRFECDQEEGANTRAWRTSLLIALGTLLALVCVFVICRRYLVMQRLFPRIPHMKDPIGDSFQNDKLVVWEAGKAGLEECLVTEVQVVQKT

B1: 9A2-VR24.29 Fab (Fab, V domains shown)
VH: EVQLLESGGGLVQPGGSLRLSCAASGFTFPWYRVHWVRQAPGKGLEWVSSIRSSGGFPYYNYKVKGRFTISRDNSKNTLYLQMNSLRAEDTAVYYCARFYDSFFDIWGQGTMVTVSS
VL: DIQMTQSPSSVSASVGDRVTITCRASQGISSWLAWYQQKPGKAPKLLIYAASSLQSGVPSRFSGSGSGTDFTLTISSLQPEDFATYYCQQANSFPITFGQGTRLEIKR
notes: recombinant Fab; also called recombinant Fab fragment of 9A2-VR24.29
What is called Kd is the free concentration of one partner at which half of the binding sites on the other are occupied at equilibrium, for simple one-to-one binding. Higher therefore signals a looser complex. The koff is the rate constant with which the complex falls apart. A high value points to fast dissociation. A word on the kon: it is the second-order rate constant of association. Read a high kon as fast association. Turning to B1, the Kd in test [1] was 0.1 nM; in test [2], 0.1 nM; in the test with human CD131 [3] it was 0.569 nM; with human CD131 [4], 0.656 nM; in the test with human CD131 [5], 0.522 nM; with human CD131 [6], 0.668 nM. The molecule further yielded a Kd in the test with human CD131 [7] of 0.384 nM. Further, the koff in test [1] is 0.000418 s⁻¹. The kon in test [1] was determined as 4e+06 M⁻¹ s⁻¹.

B2: 9A2-VR24.29 (antibody, V domains shown)
VH: B1 VH
VL: B1 VL
notes: IgG4pK; also called 9A2-VR24.29 IgG
As to B2, the Kd stood at 0.426 nM with human CD131 [8]; 0.361 nM with human CD131 [9]; 0.303 nM with human CD131 [10]; 0.528 nM in the test with human CD131 [11]; 0.73 nM in the test with human CD131 [14]; 0.246 nM with human CD131 [15]. The Kd with human CD131 [16] stood at 0.393 nM; with human CD131 [19], 0.629 nM. Moreover, the “IC50 IL-3, TF-1 proliferation” value in the test with human CD131 [12] turned out to be 0.144 nM. Also, the “IC50 IL-5, TF-1 proliferation” value in the test with human CD131 [12] was 4.67 nM. The “fold improvement of IC50 GM-CSF over parental 9A2” value in the test with human CD131 [12] is 1570 fold. The “fold improvement of IC50 IL-3 over parental 9A2” value in the test with human CD131 [12] was determined as 41 fold. The “fold improvement of IC50 IL-5 over parental 9A2” value with human CD131 [12] turned out to be 310 fold. Besides, the “IC50 (read off the curve)” value was roughly 0.007 nM with human CD131 [13] and roughly 0.3 nM with human CD131 [18]. Besides, the “IC50 GM-CSF, TF-1 proliferation” value in the test with human CD131 [17] came to 0.29 nM.

B3: 9A2 (antibody, IgG4, V domains shown)
VH: B1 VH with P30S, W31H, R33H, V34M, H35L, P58T, N61A, Y62D, K63S
VL: B1 VL
notes: IgG4pK (IgG4 S241P, kappa); also called parental 9A2
On to B3, for which, in the test with human CD131 [20], the “IC50 GM-CSF, TF-1 proliferation” value worked out at 456 nM; the “IC50 IL-3, TF-1 proliferation” value came out at 5.96 nM; the “IC50 IL-5, TF-1 proliferation” value came to 1450 nM; the “pStat5 IC50 GM-CSF, TF-1 bla reporter” value amounted to 40 nM. For the same molecule, in the test with human CD131 [20], the “pStat5 IC50 IL-3, TF-1 bla reporter” value turned out to be 7.3 nM. In the test with human GM-CSFR α-chain, the binding result is “no binding”. Further, the binding result with human IL-3R α-chain is on record as “no binding”. Moreover, in the test with human IL-5R α-chain, the binding result is listed as “no binding”.
